Publication PMC4237437, “Biochemical and Structural Characterization of Mycobacterial Aspartyl-tRNA Synthetase AspS, a Promising TB Drug Target” (PLoS ONE, 2014)

Key:
[1] = molecular target: T1, Mt-AspS (M. tuberculosis aspartyl-tRNA synthetase) (Mycobacterium tuberculosis, UniProt P9WFW3); experiment: biochemical
T1 construct: C-terminally His6-tagged Mt-AspS (pET28b)

[2] = test system: O=P(O)(O)OP(=O)(O)O; experiment: purified protein
[3] = test system: Nc1ncnc2c1ncn2[C@@H]1O[C@H](COP(=O)(O)OP(=O)(O)CP(=O)(O)O)[C@@H](O)[C@H]1O; experiment: purified protein
[4] = test system: N[C@@H](CC(=O)O)C(=O)O; experiment: purified protein
[5] = test system: Nc1ncnc2c1ncn2[C@@H]1O[C@H](COP(=O)(O)OP(=O)(O)NP(=O)(O)O)[C@@H](O)[C@H]1O; experiment: purified protein
[6] = molecular target: the molecule itself; experiment: crystal structure; apo Ms-AspS, 2.4 Å, space group C222(1), one molecule per asymmetric unit; the two monomers of the dimer are related by crystal symmetry; crystals from 30% pentaerythritol ethoxylate, 0.1 M magnesium formate, 0.1 M Tris-HCl pH 8.5

T1 sequence (P9WFW3 whole entry): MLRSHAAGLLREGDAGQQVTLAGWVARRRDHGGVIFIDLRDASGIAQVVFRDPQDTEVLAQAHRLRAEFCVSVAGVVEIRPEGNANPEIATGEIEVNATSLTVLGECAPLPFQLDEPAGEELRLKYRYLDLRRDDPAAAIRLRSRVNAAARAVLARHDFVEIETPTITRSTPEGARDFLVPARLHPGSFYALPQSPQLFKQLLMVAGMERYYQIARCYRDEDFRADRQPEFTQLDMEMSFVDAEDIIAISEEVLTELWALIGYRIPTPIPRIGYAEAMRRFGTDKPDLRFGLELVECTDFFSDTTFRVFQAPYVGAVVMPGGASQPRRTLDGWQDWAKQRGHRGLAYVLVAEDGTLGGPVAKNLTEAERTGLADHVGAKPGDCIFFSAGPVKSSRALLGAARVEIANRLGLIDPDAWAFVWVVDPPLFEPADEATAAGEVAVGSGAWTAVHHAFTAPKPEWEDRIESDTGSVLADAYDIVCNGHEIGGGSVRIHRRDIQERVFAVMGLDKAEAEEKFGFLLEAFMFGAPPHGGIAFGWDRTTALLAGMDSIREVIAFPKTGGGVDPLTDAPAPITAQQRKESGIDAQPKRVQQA

NC(=O)C1CCN(C2=NC(=O)/C(=C\c3ccc(Cl)cc3Cl)S2)CC1 [compound 1, F1673-0402]
IC50 [1]: 49.9 µM

CCOC(=O)C1CCN(C2=NC(=O)/C(=C\c3ccc(Cl)cc3)S2)CC1 [compound 2, 6632725]
IC50 [1]: 59.1 µM

Mt-AspS (M. tuberculosis aspartyl-tRNA synthetase) (Mycobacterium tuberculosis H37Rv)
Km [2]: 76.42 ± 10.10 µM | Km [3]: 98.25 ± 11.23 µM | Km [4]: 143.4 ± 18.83 µM | Km [5]: 604.7 ± 40.27 µM

B1: Mycobacterium smegmatis aspartyl-tRNA synthetase AspS (enzyme, UniProt A0QWN3 1-598, looked up)
chain: MLRTHAAGSLRPADAGQTVTLAGWVARRRDHGGVIFIDLRDASGVSQVVFREGDVLAAAHRLRAEFCVAVTGVVEVRPEGNENPEIPTGQIEVNATELTVLGESAPLPFQLDEQAGEEARLKYRYLDLRREGPGNALRLRSKVNAAARSVLAEHDFVEIETPTLTRSTPEGARDFLVPARLQPGSFYALPQSPQLFKQLLMVAGMERYYQIARCYRDEDFRADRQPEFTQLDMEMSFVEADDVIAISEQVLKAVWATIGYDLPLPLPRISYEEAMRRFGSDKPDLRFGIELVECTEYFKDTTFRVFQAPYVGAVVMPGGASQPRRTLDGWQEFAKQRGHKGLAYVLVGEDGTLGGPVAKNLSDAERDGLVAHVGANPGDCIFFAAGPAKGARALLGATRIEIAKRLDLIDPNAWAFTWVVDFPMFEAADEATAAGDVAVGSGAWTAMHHAFTAPKPDSVDTFDSDPGNALSDAYDIVCNGNEIGGGSIRIHRRDIQERVFAMMGIDHDEAQEKFGFLLDAFSYGAPPHGGIAFGWDRITALLAGVDSIREVIAFPKSGGGVDPLTDAPAPITPQQRKESGIDAKPREDKPKEDAKSKA
notes: Aspartyl-tRNA synthetase AspS of Mycobacterium smegmatis; The expression and purification protocol is printed only for Mt-AspS (E. coli C41 (DE3), Ni2+ HisTrap); also called Ms-AspS; MsAspS; source: cloned from M. smegmatis genomic DNA into pET28b; dialysed and concentrated by ultrafiltration before crystallisation
stoichiometry N [6]: 2
